{
  "source": "paper PMC7886630",
  "key": {"[1]": {"target": "deglycosylated ACE2 treated with PNGase F (human) (UniProt Q9BYF1)", "experiment": "AFM single-molecule force spectroscopy"}, "[2]": {"target": "soluble recombinant human ACE2 (Gln18-Ser740), His-tagged (human) (UniProt Q9BYF1)", "experiment": "AFM single-molecule force spectroscopy"}},
  "data": [
    {"substance": "SARS-CoV-1 spike receptor-binding domain (residues 318-510) with C-terminal Fc tag (Fc fusion; modification not given)", "values": [
      {"measurement": "koff", "setting": "[1]", "value": 3.4, "unit": "s⁻¹"},
      {"measurement": "koff", "setting": "[2]", "value": 0.57, "unit": "s⁻¹"}
    ]}
  ]
}
